67 sequences from the supplement of paper PMC10724198 can be followed below.

This data set concerns Saccharomyces cerevisiae. As to the kind of experiment: protein stability index of tFT-peptide fusion (C-terminal peptide) (PSI (0-1 scale)); higher = more stable (slower turnover). As to conditions: temperature: 30 C. The procedure: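 MPS profiling in S. cerevisiae of the yeast C-terminome library: the last 12 aa of each annotated ORF are fused to the C-terminus of a sfGFP-mCherry timer, after a GGGS linker. Cells are FACS-sorted into 8 mCherry/sfGFP bins and deep-sequenced. PSI runs from 0 (unstable) to 1 (stable); wild type and das1Δ backgrounds, two technical replicates each.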

The mark [1] stands for this setting: genetic background: das1 deletion.

± gives the standard deviation of the averaged measurements.

IEVGNGASVLIQ [TRS65 C-terminal 12 aa]: the protein stability index under setting [1] worked out at 0.692 ± 0.01 and the protein stability index (genetic background: wild type) came to 0.691 ± 0.023.
Turning to IFQEAIDKTVEI [YML082W C-terminal 12 aa], the protein stability index came to 0.708 ± 0.0011 under setting [1] and 0.706 ± 0.029 (genetic background: wild type).
On to IGAPASGLRIRV [COP1 C-terminal 12 aa], for which the protein stability index worked out at 0.693 ± 0.0074 under setting [1] and 0.69199 ± 5.7e-06 (genetic background: wild type).
Turning to IGGLKREAEASA [GDH2 C-terminal 12 aa], the protein stability index was 0.695 ± 0.041 under setting [1] and 0.719 ± 0.0075 (genetic background: wild type).
For IHDFPKSHIVDF [IKI3 C-terminal 12 aa], the protein stability index runs as follows: under setting [1], 0.7325 ± 0.0027; (genetic background: wild type) 0.733 ± 0.025.
Taken in the same sequence, the figures for “IIRPLVLKNFII [YDR371C-A C-terminal 12 aa]” were 0.5029 ± 0.0013 and 0.116 ± 0.0054.
As for IIWEKRNPEQKI [ERG11 C-terminal 12 aa], the protein stability index runs as follows: under setting [1], 0.702 ± 0.023; (genetic background: wild type) 0.7138 ± 0.0069.
Take IKARNMKIDRTQ [COG4 C-terminal 12 aa]: the protein stability index by setting is: under setting [1], 0.681 ± 0.018; (genetic background: wild type) 0.695 ± 0.041.
In the case of IKGWFVNGQVPR [PEX17 C-terminal 12 aa], the protein stability index under setting [1] amounted to 0.716 ± 0.0072 and the protein stability index (genetic background: wild type) stood at 0.674 ± 0.029.
Take IKLEDAKGTHIK [RAD59 C-terminal 12 aa]: the protein stability index under setting [1] was found to be 0.695 ± 0.013 and the protein stability index (genetic background: wild type) worked out at 0.6411 ± 0.0032.
IKMIKELGNHRL [RMD6 C-terminal 12 aa] came in with a protein stability index under setting [1] of 0.684 ± 0.0078 and a protein stability index (genetic background: wild type) of 0.646 ± 0.026.
On to IKSLFSLAKEAS [MSC7 C-terminal 12 aa], for which the protein stability index is, setting by setting: under setting [1], 0.703 ± 0.01; (genetic background: wild type) 0.5867 ± 0.0023.
On to IKVDNIVHIRND [YFH7 C-terminal 12 aa], for which the protein stability index came out at 0.6928 ± 0.0038 under setting [1] and 0.723 ± 0.039 (genetic background: wild type).
The like results for ILEAWEKVDDSL [SNX4 C-terminal 12 aa] were, in that order, 0.734 ± 0.013 and 0.734 ± 0.016.
As to ILQCFTDEILNC [NDJ1 C-terminal 12 aa], the protein stability index runs as follows: under setting [1], 0.691 ± 0.0087; (genetic background: wild type) 0.68 ± 0.022.
With ILRILANSNDDN [BXI1 C-terminal 12 aa], the protein stability index runs as follows: under setting [1], 0.699 ± 0.036; (genetic background: wild type) 0.6562 ± 0.0062.
The like results for ILSWYFLETVAV [YMR254C C-terminal 12 aa] were, in that order, 0.317 ± 0.024 and 0.34 ± 0.018.
Taken in the same sequence, the figures for INEDNKAYSLDY [RIM4 C-terminal 12 aa] were 0.69877 ± 0.00035 and 0.722 ± 0.026.
IPLTEFDLSDSK [YMR253C C-terminal 12 aa] registered a protein stability index under setting [1] of 0.701 ± 0.0095 and a protein stability index (genetic background: wild type) of 0.73422 ± 0.00045.
The like results for IQESRFNFYLIT [RKM5 C-terminal 12 aa] were, in that order, 0.683 ± 0.023 and 0.6241 ± 0.0035.
The like results for IRDEGLNNLDTA [YPL257W C-terminal 12 aa] were, in that order, 0.6944 ± 0.006 and 0.704 ± 0.019.
With IRLFRSARRWVG [ADE6 C-terminal 12 aa], the protein stability index stood at 0.7017 ± 0.0011 under setting [1] and 0.66 ± 0.0083 (genetic background: wild type).
The like results for IRSRGRLKEVYF [SLX5 C-terminal 12 aa] were, in that order, 0.732 ± 0.026 and 0.68566 ± 0.00055.
Taken in the same sequence, the figures for ISDNVPKEAIIM [PSA1 C-terminal 12 aa] were 0.686 ± 0.023 and 0.631 ± 0.034.
The like results for ISGGTFGFRSEI [HBT1 C-terminal 12 aa] were, in that order, 0.696 ± 0.02 and 0.7165 ± 0.0021.
Sequence ISIVACALWLVF [DCW1 C-terminal 12 aa] gave a protein stability index under setting [1] of 0.288 ± 0.003 and a protein stability index (genetic background: wild type) of 0.291 ± 0.0036.
ISKVSNTRVCCT [YAL004W C-terminal 12 aa] came in with a protein stability index under setting [1] of 0.6431 ± 0.0031 and a protein stability index (genetic background: wild type) of 0.654 ± 0.017.
The like results for “ISSKSIPSVDDK [YIL071W-A C-terminal 12 aa]” were, in that order, 0.677 ± 0.025 and 0.706 ± 0.067.
The like results for ISVSSGIENFAT [YJL202C C-terminal 12 aa] were, in that order, 0.692 ± 0.042 and 0.654 ± 0.019.
Taken in the same sequence, the figures for ITFIASLMTLNK [SAC6 C-terminal 12 aa] were 0.66916 ± 0.0005 and 0.679 ± 0.021.
With “ITSQDILASTDY [YHL009W-B C-terminal 12 aa]”, the protein stability index turned out to be 0.688 ± 0.015 under setting [1] and 0.711 ± 0.027 (genetic background: wild type).
In the case of “ITSYNFLGVPFK [YLR406C-A C-terminal 12 aa]”, the protein stability index is, setting by setting: under setting [1], 0.746 ± 0.018; (genetic background: wild type) 0.724 ± 0.043.
For IVALILNTRGSE [VMA11 C-terminal 12 aa], the protein stability index amounted to 0.683 ± 0.0096 under setting [1] and 0.668 ± 0.028 (genetic background: wild type).
On to IVKAVKEVLSIE [PDB1 C-terminal 12 aa], for which the protein stability index came to 0.683 ± 0.0044 under setting [1] and 0.667 ± 0.044 (genetic background: wild type).
As for IVLPENIPLLYK [YJL195C C-terminal 12 aa], the protein stability index came to 0.694 ± 0.037 under setting [1] and 0.672 ± 0.023 (genetic background: wild type).
Taken in the same sequence, the figures for IVPLSELEKTLI [XKS1 C-terminal 12 aa] were 0.696 ± 0.016 and 0.687 ± 0.0097.
Taken in the same sequence, the figures for IVPSQGKKVKFD [NOP13 C-terminal 12 aa] were 0.679 ± 0.0068 and 0.676 ± 0.011.
As to IYKCEDERIDYF [KOG1 C-terminal 12 aa], the protein stability index by setting is: under setting [1], 0.6594 ± 0.00099; (genetic background: wild type) 0.726 ± 0.015.
For IYLLSDYEKDNI [CMR2 C-terminal 12 aa], the protein stability index was 0.709 ± 0.044 under setting [1] and 0.684 ± 0.0073 (genetic background: wild type).
The like results for KAELDRYKRENQ [SEM1 C-terminal 12 aa] were, in that order, 0.7052 ± 0.0058 and 0.709 ± 0.049.
With KAFVIGAIALVA [YMR317W C-terminal 12 aa], the protein stability index under setting [1] is 0.331 ± 0.01 and the protein stability index (genetic background: wild type) was found to be 0.341 ± 0.0043.
Consider KALELILNILEH [SNU56 C-terminal 12 aa], for which the protein stability index under setting [1] was determined as 0.683 ± 0.033 and the protein stability index (genetic background: wild type) came out at 0.667 ± 0.012.
The like results for KARLTEEQHRHE [CWC21 C-terminal 12 aa] were, in that order, 0.705 ± 0.0052 and 0.697 ± 0.019.
Taken in the same sequence, the figures for KAVEFTTTALSS [MKT1 C-terminal 12 aa] were 0.715 ± 0.0089 and 0.747 ± 0.11.
Taken in the same sequence, the figures for KCQTKHTFTGLI [YGR269W C-terminal 12 aa] were 0.695 ± 0.0072 and 0.723 ± 0.021.
On to KDEINYLNSKLK [SPA2 C-terminal 12 aa], for which the protein stability index is 0.692 ± 0.07 under setting [1] and 0.706 ± 0.083 (genetic background: wild type).
For the sequence KDVIVDHHSDLN [SAP4 C-terminal 12 aa], the protein stability index is 0.706 ± 0.048 under setting [1] and 0.701 ± 0.052 (genetic background: wild type).
Taken in the same sequence, the figures for KEQEESEKDKEN [BFR1 C-terminal 12 aa] were 0.732 ± 0.015 and 0.69 ± 0.05.
As to KFDEKTATLVDE [YDL144C C-terminal 12 aa], the protein stability index was found to be 0.692 ± 0.027 under setting [1] and 0.675 ± 0.022 (genetic background: wild type).
Taken in the same sequence, the figures for KFETPGEYKKRI [LCL3 C-terminal 12 aa] were 0.697 ± 0.029 and 0.712 ± 0.019.
On to “KFPLSVKKKIRI [YNR075C-A C-terminal 12 aa]”, for which the protein stability index is, setting by setting: under setting [1], 0.6821 ± 0.0027; (genetic background: wild type) 0.697 ± 0.066.
In the case of KGKLITKVNNEE [YML131W C-terminal 12 aa], the protein stability index is, setting by setting: under setting [1], 0.648 ± 0.029; (genetic background: wild type) 0.628 ± 0.04.
Taken in the same sequence, the figures for KGPSKTALLSKK [PKP1 C-terminal 12 aa] were 0.707 ± 0.021 and 0.711 ± 0.033.
In turn, KGVIGTNPPITH [MPC3 C-terminal 12 aa] displayed a protein stability index under setting [1] of 0.7045 ± 0.0018 and a protein stability index (genetic background: wild type) of 0.719 ± 0.081.
The like results for KGVVTLEEILKA [COQ11 C-terminal 12 aa] were, in that order, 0.712 ± 0.012 and 0.712 ± 0.028.
The like results for KHKNILPFNFTK [YEL074W C-terminal 12 aa] were, in that order, 0.703 ± 0.037 and 0.741 ± 0.0086.
KIGKGKLYFAIV [YDR220C C-terminal 12 aa] displayed a protein stability index under setting [1] of 0.666 ± 0.011 and a protein stability index (genetic background: wild type) of 0.491 ± 0.015.
For the sequence KIITLDLSNYAE [SMC1 C-terminal 12 aa], the protein stability index runs as follows: under setting [1], 0.709 ± 0.057; (genetic background: wild type) 0.672 ± 0.049.
Taken in the same sequence, the figures for KIRPTFGDNQAS [HST3 C-terminal 12 aa] were 0.6923 ± 0.001 and 0.73 ± 0.043.
With KISLLSHAQCYK [YIR016W C-terminal 12 aa], the protein stability index under setting [1] was 0.668 ± 0.024 and the protein stability index (genetic background: wild type) worked out at 0.6506 ± 0.0051.
As to KKGETFGYDKWW [OPT1 C-terminal 12 aa], the protein stability index runs as follows: under setting [1], 0.725 ± 0.021; (genetic background: wild type) 0.683 ± 0.032.
Turning to KKGPKFKSRKKL [RRP12 C-terminal 12 aa], the protein stability index by setting is: under setting [1], 0.748 ± 0.037; (genetic background: wild type) 0.678 ± 0.011.
Take KKHRVGMPKEDK [DIC1 C-terminal 12 aa]: the protein stability index is 0.67 ± 0.013 under setting [1] and 0.69 ± 0.031 (genetic background: wild type).
Consider “KKIIKKKDFYHR [YOR011W-A C-terminal 12 aa]”, for which the protein stability index reads like this: under setting [1], 0.728 ± 0.015; (genetic background: wild type) 0.706 ± 0.04.
Taken in the same sequence, the figures for KKKDASQEESLI [VMA2 C-terminal 12 aa] were 0.6922 ± 0.0019 and 0.7066 ± 0.0041.
With KKKKNASTCTIL [RSR1 C-terminal 12 aa], the protein stability index runs as follows: under setting [1], 0.7494 ± 0.0014; (genetic background: wild type) 0.711 ± 0.03.
Taken in the same sequence, the figures for “KKKKQIKNFQFG [YMR290W-A C-terminal 12 aa]” were 0.687 ± 0.0087 and 0.656 ± 0.05.
